This is an account of results in PMC6981440 (International Journal of Molecular Sciences, 2019).

Data set [1] addresses mouse anti-GM1 IgG2b(κ) antibody GB2 (mouse). Nature of the data set: high-speed atomic force microscopy; antibody at 10 μg/mL in phosphate-buffered saline, 3 min on a mica-supported DOPC bilayer with GM1 (rings at >25% GM1; 50% GM1 in Figure 4), unbound antibody washed off; room temperature.
Data set [2] concerns the molecule itself. Nature of the data set: crystal structure; apo Fc of GB2; 16% PEG3350, 0.2 M lithium chloride, 0.1 M Bis-Tris pH 6.5, 20 °C; P2(1)2(1)2(1), three Fc dimers per asymmetric unit, 2.30 Å.

The stoichiometry N is the number of molecules, sites or subunits per partner or assembly. In data set [1], mouse anti-GM1 IgG2b(κ) antibody GB2 had a stoichiometry N of 6.

B1: Fc fragment of GB2 (mouse IgG2b-Fc, apo form) (domain or fragment)
chain: CPAPNLEGGPSVFIFPPNIKDVLMISLTPKVTCVVVDVSEDDPDVQISWFVNNVEVHTAQTQTHREDYNSTIRVVSTLPIQHQDWMSGKEFKCKVNNKDLPSPIERTISKIKGLVRAPQVYILPPPAEQLSRKDVSLTCLVVGFNPGDISVEWTSNGHTEENYKDTAPVLDSDGSYFIYSKLNMKTSKWEKTDSFSCNVRHEGLKNYYLKKTISRSPG
notes: Fc fragment of the mouse IgG2b heavy chain of GB2, cut by papain; Fc dimer; three Fc dimers per asymmetric unit in the crystal; also called apo Fc; source: papain digestion of GB2 from mouse hybridoma, purified (Affi-gel protein A column)
In the case of B1, the “stoichiometry N” value in data set [2] stood at 3.
